T1: human IL-33 (R&D Systems, #3625-IL-010/CF) (human, UniProt O95760 112-270)
T1 construct: Commercial recombinant protein; also called hIL-33; interleukin-33
T1 sequence (looked up): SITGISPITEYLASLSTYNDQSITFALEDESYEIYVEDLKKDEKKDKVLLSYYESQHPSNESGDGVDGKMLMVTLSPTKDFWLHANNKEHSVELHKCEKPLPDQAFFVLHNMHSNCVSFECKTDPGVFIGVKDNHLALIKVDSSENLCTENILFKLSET

T2: cynomolgus monkey IL-33 expressed with a C-terminal hexahistidine tag (cynomolgus monkey)
T2 construct: also called MfIL-33-6His; Mf-IL-33-6His
T2 chain: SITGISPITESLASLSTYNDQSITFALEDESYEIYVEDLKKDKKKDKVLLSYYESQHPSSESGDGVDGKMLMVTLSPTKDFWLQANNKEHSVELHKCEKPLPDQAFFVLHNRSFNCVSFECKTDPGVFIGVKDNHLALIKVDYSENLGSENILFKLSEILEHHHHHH


Columns and labels:
[1] = biological target: T1, human IL-33 (R&D Systems, …); assay: BLI; hIL-33 pre-mixed with mAb-2 H1M9565N
Experimental: (§1) Binding competition between a panel of different anti-IL-33 monoclonal antibodies was determined using a real time, label-free bio-layer interferometry assay on an Octet® HTX biosensor (ForteBio, A Division of Pall Life Sciences). The experiment was performed at 25° C. using a buffer of 0.01M HEPES pH7.4, 0.15M NaCl, 0.05% v/v Surfactant Tween-20, and 0.1 mg/ml BSA (HBS-ET kinetics buffer) with the plate shaking at a speed of 1000 rpm. To assess whether two antibodies were able to compete with one another for binding to human IL-33, a pre-mix assay format was used where 100 nM of human IL-33 (R&D Systems; #3625-IL-010/CF) was pre-mixed with 500 nM of different anti-IL-33 monoclonal antibodies (subsequently referred to as mAb-2) for at least 2 hours prior to running the binding competition assay. […] Following the capture step, unoccupied anti-mouse Fc polyclonal antibody and anti-human Fc polyclonal antibody on the Octet biosensors were saturated by submerging them for 4 minutes into wells containing 200 μg/mL of a non-specific monoclonal antibody with a mouse Fc or with a human Fc, respectively. Finally, the Octet biosensors were immersed for 4 minutes into wells containing the pre-mixed samples of 100 nM of human IL-33 and 500 nM of mAb-2. At the end of each cycle, the non-covalently captured anti-IL-33 antibodies along with the bound pre-complex of human IL-33 and mAb-2 were removed from the biosensors using three alternate 20 second immersions into 10 mM HCl followed by submerging into HBS-ET kinetics buffer. The biosensors were washed in HBS-ET kinetics buffer in between every step of the experiment. The real-time binding response was monitored during the binding events, and the binding response (in units of nm) at the end of every step was recorded.

[2] = biological target: T2, cynomolgus monkey IL-33 expressed with …; assay: competition ELISA, 150 pM MfIL-33-6His on coated hST2-hFc
Experimental: The ability of anti-IL-33 antibodies to block either human IL-33 (hIL-33) or cynomologus monkey IL-33 binding to the human ST2 receptor was measured using a competition sandwich ELISA. […] The antibody/IL-33 mixtures were incubated for 1 hour at room temperature before they were transferred to the hST2-hFc-coated microtiter plates. After incubating for 1 hour at room temperature, the wells were then washed, and plate-bound biotin-hIL-33 was detected with streptavidin conjugated with horse-radish peroxidase (HRP) (Thermo Scientific, Cat # N200), and plate-bound MfIL-33-6His was detected with a HRP conjugated anti-His monoclonal antibody (Qiagen, #34460). All samples were developed with a TMB solution (BD biosciences, #51-2607KC) to produce a colorimetric reaction and then quenched by acidification with 1M sulfuric acid before measuring absorbance at 450 nm on a Victor X5 plate reader. Data analysis was performed using a sigmoidal dose-response model within Prism™ software. […] Percent blockade was calculated as the ratio of the reduction in signal observed in the presence of antibody relative to the difference between the signal with IL-33 alone and background (signal from HRP-conjugated secondary antibody or streptavidin alone). The absorbance measured for the constant concentration of biotin-hIL-33 or MfIL-33-6His alone is defined as 0% blocking and the absorbance measured for no added IL-33 is defined as 100% blocking.

[3] = biological target: T2, cynomolgus monkey IL-33 expressed with …; assay: BLI; captured MfIL-33-6His, mAb-1 step with Isotype control
Experimental: Binding competition between a panel of different anti-IL-33 monoclonal antibodies was determined using a real time, label-free bio-layer interferometry assay on an Octet® HTX biosensor (ForteBio, A Division of Pall Life Sciences). The experiment was performed at 25° C. using a buffer of 0.01M HEPES pH7.4, 0.15M NaCl, 3 mM EDTA, 0.05% v/v Surfactant Tween-20, and 0.1 mg/ml BSA (HBS-ET kinetics buffer) with the plate shaking at a speed of 1000 rpm. […] The antigen-captured biosensors were then saturated with a first anti-IL-33 monoclonal antibody (subsequently referred to as mAb-1) by immersion into wells containing 50 μg/mL solution of mAb-1 for 5 minutes. The biosensors were then dipped into wells containing a 50 μg/mL solution of a second anti-IL-33 monoclonal antibody (subsequently referred to as mAb-2) for 4 minutes. The biosensors were washed in HBS-ET kinetics buffer in between every step of the experiment. The real-time binding response was monitored during the experiment, and the maximum binding response for each binding step was recorded. The response of mAb-2 binding to MfIL-33-6His pre-complexed with mAb-1 was measured, and competitive/non-competitive behavior of different anti-IL-33 monoclonal antibodies with respect to each other was determined.

[4] = biological target: T1, human IL-33 (R&D Systems, …); assay: BLI; hIL-33 pre-mixed with mAb-2 Isotype control 2
Experimental: as §1

Binder	mAb-1 Binding to the Pre-complex of mAb-2 & hIL-33 [1] [nm]	% Maximum blocking [2] [%]	IC50 [2] [nM]	mAb-2 Binding to the Pre-complex of mAb-1 & MfIL-33-6xHis [3] [nm]	mAb-1 Binding to the Pre-complex of mAb-2 & hIL-33 [4] [nm]
H4H9660P (antibody, human IgG4, V domains shown, Human IgG4 Fc (H4H)) VH: EVQLVESGGGLVQPGGSLRLSCAASGITLSSYGMSWVRQAPGKGLEWVASIFGSGGGPYYADSVKGRFTMSRDNSKNTLYLQMNSLRAEDTAVYYCAKDRYSGSYYGGFDYWGRGTLVTVSS VL: DIQMTQSPSSVSASVGDRVTITCRASQGITSWLAWYQQKPGKAPTLLIYAASSLQTGVPSRFSGSGSGTDFTLTISSLQPEHFATYYCQQANSFPPTFGGGTKVEIK	0.53	68	4.2	0.26	0.15
H4H9663P (antibody, human IgG4, V domains shown, Human IgG4 Fc (H4H)) VH: QVQLVQSGAEVKKPGASVKVSCKASGYTFTGHYMYWMRQAPGQGLEWMGWINPNSGGTNYAQKFQDRVTMTRDTSISTAYMELSRLRSDDTAVYYCARGRYGSSWYGGFEYWGQGTLVTVSS VL: DIQMTQSPSSVSASVGDRVTITCRASQGITSWLAWYQQKPGKAPNLLIYAAASLQSGVPSRFSGSGSGTDFTLTISSLQPEDFTTYYCQQAYSLPLTFGGGTKVEIK	0.54	81	1.2	0.23	0.09
H4H9666P (antibody, human IgG4, V domains shown, Human IgG4 Fc (H4H)) VH: QVQLVQSGAEVKKPGASVKVSCKASGYTFTSYGISWVRQAPGQGLEWMGWIRAYNGYTNYAQKFQGRVTMTTDTSTNTAYMELRTLNSDDTAVYYCARDRYSGSFHGNFDYWGQGTLVTVSS VL: DIQMTQSPSSVSASVGDRVTITCRASQGIFSWLAWYQQKPGKAPKVLIYAASNLESGVPSRFSGSGSGTDFTLTISSLQPEDFATYYCQQANSLPLTFGGGTKVEIK	0.56	40	13	0.28	0.08
H4H9664P (antibody, human IgG4, V domains shown, Human IgG4 Fc (H4H)) VH: QVQLVESGGGVVQPGRSLRLSCAASGFTFSSYGLHWVRQSPGKGLEWVALISYDGSNKYYADSVKGRFTISRDNSKNTLYLQMNSLRPEDTAGYFCAKSLYTTSWYGGFDYWGQGTLVTVSS VL: DIQMTQSPSSVSASVGDRVTITCRASQGIRSWLAWYQQKPGKAPNLLIYAASSLQSGVPSRFSGSGSGTDFTLTISSLQPEDFATYYCQQANSFPPTFGPGTKVDIK	0.48	67	3.8	0.27	0.1

Binders with a lower IC50 [2], results first:

mAb-1 Binding to the Pre-complex of mAb-2 & hIL-33 [1] [nm]	% Maximum blocking [2] [%]	IC50 [2] [nM]	mAb-2 Binding to the Pre-complex of mAb-1 & MfIL-33-6xHis [3] [nm]	mAb-1 Binding to the Pre-complex of mAb-2 & hIL-33 [4] [nm]	Binder
0.57	87	0.86	0.22	0.11	H4H9662P (antibody, V domains shown, Human IgG4 Fc (H4H)) VH: EVQLVESGGGLVQPGGSLRLSCAASGFTFSSYALTWVRQAPGKGLEWVSFISGSGGRPFYADSVKGRFTISRDNSKNMLYLQMNSLRAEDTAIYYCAKSLYTTSWYGGFDSWGQGTLVTVSS VL: DIQMTQSPSSVSASVGDRVTITCRASQGVVSWLAWYQQKPGKAPKLLIYAASSLQSGVPSRFSGSGSGTDFTLTISSLQPEDFATYYCQQSNSFPFTLGPGTKVDIK
0.66	81	0.42	0.3	0.09	H4H9665P (antibody, human IgG4, V domains shown, Human IgG4 Fc (H4H)) VH: EVQLVESGGGLVQPGGSLRLSCAASGFTFSNYAMTWVRQAPGKGLEWVSTISGSGDNTYYADSVQGRFTISRGHSKNTLYLQMNSLRAEDTAVYYCAKPTYSRSWYGAFDFWGQGTMVTVSS VL: DIQMTQSPSSVSASVGDRVTITCRASQGISSWLAWYQQKPGKAPQLLIYAASRLQSGVPSRFWGSGSGTDFTLTISSLQPEDFATYYCQQANNFPFTFGPGTKVDIK

From patent publication US20160362487A1 (Regeneron, published 2016)
